Test results from publication PMC3786598 (Microscopy and microanalysis : the official journal of …, 2012).

Target: the molecule itself
Assay: single-molecule stepwise photobleaching

B1: prestin-eGFP (natural protein, UniProt Q9JKQ2 1-744, looked up)
chain: MDHAEENEIPVATQKYHVERPIFSHPVLQERLHVKDKVSESIGDKLKQAFTCTPKKIRNIIYMFLPITKWLPAYKFKEYVLGDLVSGISTGVLQLPQGLAFAMLAAVPPVFGLYSSFYPVIMYCFFGTSRHISIGPFAVISLMIGGVAVRLVPDDIVIPGGVNATNGTEARDALRVKVAMSVTLLSGIIQFCLGVCRFGFVAIYLTEPLVRGFTTAAAVHVFTSMLKYLFGVKTKRYSGIFSVVYSTVAVLQNVKNLNVCSLGVGLMVFGLLLGGKEFNERFKEKLPAPIPLEFFAVVMGTGISAGFNLHESYSVDVVGTLPLGLLPPANPDTSLFHLVYVDAIAIAIVGFSVTISMAKTLANKHGYQVDGNQELIALGICNSIGSLFQTFSISCSLSRSLVQEGTGGKTQLAGCLASLMILLVILATGFLFESLPQAVLSAIVIVNLKGMFMQFSDLPFFWRTSKIELTIWLTTFVSSLFLGLDYGLITAVIIALLTVIYRTQSPSYKVLGQLPDTDVYIDIDAYEEVKEIPGIKIFQINAPIYYANSDLYSNALKRKTGVNPALIMGARRKAMRKYAKEVGNANIANAAVVKVDGEVDGENATKPEEEDDEVKYPPIVIKTTFPEELQRFMPQTENVHTIILDFTQVNFIDSVGVKTLAVMVKEYGDVGIYVYLAGCSPQVVNDLTRNRFFENPALKELLFHSIHDAVLGSHVREAMAEQEASAPPPQDDMEPNATPTTPEA
Question: How did the “stoichiometry N” value turn out when B1 was run?
Answer: 4
